The values that follow come from the supplement of paper PMC11865577.

What all share (assay): pull-down binding Z-score (relative to library population); higher = stronger binding
Holding throughout (conditions): RNA library: Library-2

For data set [1], the system named is TO-3-N3-2 (biotin conjugate). An outline of the steps:
(§1)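 To score binding, a beads-only signal was subtracted, barcoded replicate probes were averaged with the highest and lowest dropped, and the value was converted to a Z-score using the library mean and standard deviation. The input was 1 μg of Cy5- or Cy3-end-labelled RNA library, heat-folded in phosphate/NaCl/KCl buffer and mixed for 60 min at 25 °C with streptavidin beads carrying 100 pmol of biotin-conjugated small molecule. Bound RNA was eluted in hot SDS and hybridised to a DNA barcode microarray at 55.5 °C for 20 h.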

The subject of data set [2] is TO-3-N3 (biotin conjugate). An outline of the steps:
as §1

In data set [3] the test system is TO-N3-2 (biotin conjugate). The procedure, abridged:
as §1

The next data set concerns TO-N3 (biotin conjugate). An outline of the steps:
as §1

As to GAAUGCGUCAUCAUCUGAAGCAUUU, the “pull-down binding Z-score” value in data set [1] was -0.405; in data set [2], -0.994; in data set [3] it was -0.61; in the data set with TO-N3 (biotin conjugate), -1.1.

Take “AACGGGGCGGGCCUUGGGCGGGGUAA [G4_2A2_VEGF-Pu22-mt]”: the “pull-down binding Z-score” value in data set [1] came to 10.6; in data set [2], 8.69; in data set [3], 5.19; in the data set on TO-N3 (biotin conjugate), 7.05.

In the case of AAAUAAGUAUGAUACUUACCUG [U1snRNP5ss-4], the “pull-down binding Z-score” value in data set [1] is -0.0682; in data set [2] it was -0.522; in data set [3] it was -0.672; in the data set on TO-N3 (biotin conjugate) it was -0.506.

For “GGGAGAUUAAUGGUCCU [IAV_invivo_PB2_1_Motif_25+IAV_invivo_PB2_1_Motif_25]”, the “pull-down binding Z-score” value in data set [1] stood at 0.00669; in data set [2], 0.341; in data set [3], 0.225; in the data set with TO-N3 (biotin conjugate), 0.327.

For the sequence GCGCUGCCAGAAACUGGCUUGAGCGC [bulge-UUG], the “pull-down binding Z-score” value in data set [1] came out at 0.543; in data set [2] it was 1.04; in data set [3], 0.434; in the data set with TO-N3 (biotin conjugate), 0.932.

Consider “GUCUUUCCAGGGGC [IAV_invivo_NP_5_Motif_23+IAV_invivo_NP_5_Motif_23]”, for which the “pull-down binding Z-score” value in data set [1] is -0.414; in data set [2], -0.313; in data set [3], -0.0606; in the data set on TO-N3 (biotin conjugate), -0.393.

For AUACCUGCACGUGCUCGUGUAGAGUGU, the “pull-down binding Z-score” value was -0.0175 in data set [1], 0.0809 in data set [2], -0.468 in data set [3] and -0.0676 in the data set with TO-N3 (biotin conjugate).

For the sequence “CUGCACUGUUAGCGGGUACAAUCACUUCUGGUUGGACCUUUGGUGCAG [SHAPE_invitro_SARS-CoV-2_Motif_437]”, the “pull-down binding Z-score” value was -0.189 in data set [1], -0.428 in data set [2], -0.738 in data set [3] and -0.574 with TO-N3 (biotin conjugate).

Consider GGUUUAUACCUUCCCAGGUAACAAACC, for which the “pull-down binding Z-score” value in data set [1] was -0.582; in data set [2] it was -0.697; in data set [3], -1.05; in the data set with TO-N3 (biotin conjugate) it was -0.928.

As to “ACCAUUUAAUGAUGGU [DMSMaPseq_invitro_SARS-CoV-2_Motif_383]”, the “pull-down binding Z-score” value was -0.365 in data set [1], -0.648 in data set [2], -1.7 in data set [3] and -1.21 in the data set on TO-N3 (biotin conjugate).

Take UCAUUAAUUGA: the “pull-down binding Z-score” value in data set [1] was -0.664; in data set [2], -0.712; in data set [3], -1.65; in the data set on TO-N3 (biotin conjugate) it was -1.27.

On to “GAAGGCUAUUUGAACUCUACUAAUGUCACUAUUGCAACCUACUGUACUGGUUCUAUACCUUGUAGUGUUUGUCUUAGUGGUUUAGAUUCUUU”, for which the “pull-down binding Z-score” value in data set [1] was -0.458; in data set [2], -0.541; in data set [3], -0.467; in the data set on TO-N3 (biotin conjugate), -0.505.

“GGGUUUACAAACAAUUUGAUACUUAUAACCU [DMSMaPseq_invitro_SARS-CoV-2_Motif_347]”: the “pull-down binding Z-score” value was -0.105 in data set [1], -0.652 in data set [2], -1.11 in data set [3] and -0.828 in the data set with TO-N3 (biotin conjugate).

Take “AAGUUAAUUUUCCUCUGGCUGUUAUGGCCAGUAACUU [SHAPE_invivo_SARS-CoV-2_Motif_506]”: the “pull-down binding Z-score” value in data set [1] is -0.439; in data set [2] it was -0.74; in data set [3], -0.963; in the data set with TO-N3 (biotin conjugate), -1.02.

Take UGCUUUCGUGGUA: the “pull-down binding Z-score” value was -0.292 in data set [1], 0.137 in data set [2], -0.505 in data set [3] and 0.0358 with TO-N3 (biotin conjugate).

As to “GAGUGCUAUCUAACCUUAACUUGCCUGGUUGUGAUGGUGGCAGUUUGUAUGUAAAUAAACAUGCAUUCCACACACCAGCUUUUGAUAAAAGUGCUU [DMSMaPseq_invitro_SARS-CoV-2_Motif_343]”, the “pull-down binding Z-score” value in data set [1] is -0.487; in data set [2] it was -0.749; in data set [3] it was -0.238; in the data set with TO-N3 (biotin conjugate) it was -0.637.

In the case of “GCUAUAUGAUGC [IAV_invivo_PA_3_Motif_14+IAV_invivo_PA_3_Motif_14]”, the “pull-down binding Z-score” value in data set [1] is -0.212; in data set [2], -0.0014; in data set [3] it was -0.634; in the data set with TO-N3 (biotin conjugate) it was -0.106.

With “CCUACUGAUGG [IAV_invivo_PA_3_Motif_12+IAV_invivo_PA_3_Motif_12]”, the “pull-down binding Z-score” value in data set [1] was -0.207; in data set [2], 0.0894; in data set [3], -0.632; in the data set on TO-N3 (biotin conjugate), -0.319.

With CAGGUUUGUGAGAUACUUACCUG [U1snRNP5ss-14], the “pull-down binding Z-score” value in data set [1] was -0.404; in data set [2] it was -0.473; in data set [3] it was -0.792; with TO-N3 (biotin conjugate), -0.661.

Consider “UAGACAAUUCUAGUCUUACUAUUAAGAAACCUAAUGAAUUAUCUA [SHAPE_invivo_SARS-CoV-2_Motif_135]”, for which the “pull-down binding Z-score” value in data set [1] was -0.287; in data set [2], -1.02; in data set [3], -1.41; in the data set on TO-N3 (biotin conjugate), -1.27.

CUGACAAAGUUUUCAG: the “pull-down binding Z-score” value in data set [1] is -0.329; in data set [2], 0.631; in data set [3], -0.543; with TO-N3 (biotin conjugate), 0.341.

Consider “CUCUCAUCGAUCUCCAAGAACUUGGAAAGUAUGAGCAG [SHAPE_invitro_SARS-CoV-2_Motif_456]”, for which the “pull-down binding Z-score” value in data set [1] was -0.286; in data set [2] it was -0.197; in data set [3], 0.281; in the data set on TO-N3 (biotin conjugate) it was -0.095.

On to “CAUCAAAACCAAGCAAGAGGUCAUUUAUUGAAGAUCUACUUUUCAACAAAGUGACACUUGCAGAUG [DMSMaPseq_invitro_SARS-CoV-2_Motif_426]”, for which the “pull-down binding Z-score” value in data set [1] was -0.0955; in data set [2], -0.806; in data set [3], -0.851; in the data set on TO-N3 (biotin conjugate), -0.92.

For the sequence “ACAGGGACUACUCCCACCCAAGAAUAGCAUAGAUGCCUUCAAACUCAACAUUAAAUUGUUGGGUGUUGGUGGCAAACCUUGUAUCAAAGUAGCCACUGU”, the “pull-down binding Z-score” value was 0.116 in data set [1], -0.466 in data set [2], -0.183 in data set [3] and -0.503 in the data set on TO-N3 (biotin conjugate).

On to “CGGCAUCAUAUGGGUUGCAACUGAGGGAGCCUUGAAUACACCAAAAGAUCACAUUGGCACCCGCAAUCCUGCUAACAAUGCUG [SHAPE_invitro_SARS-CoV-2_Motif_522]”, for which the “pull-down binding Z-score” value was 0.0568 in data set [1], -0.511 in data set [2], 0.334 in data set [3] and -0.253 with TO-N3 (biotin conjugate).

Consider “GUACAUGGGCACACUUUCUUAUGAACAAUUUAAGAAAGGUGUUCAGAUAC [DMSMaPseq_invitro_SARS-CoV-2_Motif_106]”, for which the “pull-down binding Z-score” value in data set [1] is 0.0305; in data set [2], -0.377; in data set [3] it was -0.639; in the data set on TO-N3 (biotin conjugate), -0.353.

As to UCCAAGAACUUGGA, the “pull-down binding Z-score” value in data set [1] is -0.88; in data set [2], -0.941; in data set [3], -1.73; in the data set with TO-N3 (biotin conjugate) it was -1.35.

Regarding CUUCUGCUGCUCUUCAACCUGAAGAAGAGCAAGAAGAAG, the “pull-down binding Z-score” value is -0.22 in data set [1], -0.349 in data set [2], -0.79 in data set [3] and -0.368 in the data set with TO-N3 (biotin conjugate).

Take CCAGAGAAGAAACUGG: the “pull-down binding Z-score” value came to 0.0828 in data set [1], 0.466 in data set [2], 0.486 in data set [3] and 0.417 in the data set on TO-N3 (biotin conjugate).

As to “GAUGUAAUUAUCUUGGCAAACCACGCGAACAAAUAGAUGGUUAUGUC [DMSMaPseq_invitro_SARS-CoV-2_Motif_374]”, the “pull-down binding Z-score” value in data set [1] was -0.326; in data set [2], -0.928; in data set [3], -0.828; in the data set on TO-N3 (biotin conjugate), -1.03.

Take “UCCUAUUUCUGAACAUGACUACCAGAUUGGUGGUUAUACUGAAAAAUGGGA”: the “pull-down binding Z-score” value is -0.375 in data set [1], 0.1 in data set [2], -0.953 in data set [3] and 0.012 with TO-N3 (biotin conjugate).

Turning to “GGACCUGAGCGCACCUGUUGUCU [SHAPE_invivo_SARS-CoV-2_Motif_351]”, the “pull-down binding Z-score” value in data set [1] worked out at 0.645; in data set [2], 0.863; in data set [3], 1.67; in the data set with TO-N3 (biotin conjugate), 1.58.

On to GCGCUGCCAGAAACUGGCCCCAGCGC [bulge-CCC], for which the “pull-down binding Z-score” value in data set [1] is -0.182; in data set [2] it was -0.229; in data set [3] it was 0.6; in the data set with TO-N3 (biotin conjugate), -0.283.
